Literature values as cited in article PMC9574052.

Target: oxytocin receptor (Homo sapiens) (UniProt P30559)
Sequence of UniProt P30559 (P30559 whole entry): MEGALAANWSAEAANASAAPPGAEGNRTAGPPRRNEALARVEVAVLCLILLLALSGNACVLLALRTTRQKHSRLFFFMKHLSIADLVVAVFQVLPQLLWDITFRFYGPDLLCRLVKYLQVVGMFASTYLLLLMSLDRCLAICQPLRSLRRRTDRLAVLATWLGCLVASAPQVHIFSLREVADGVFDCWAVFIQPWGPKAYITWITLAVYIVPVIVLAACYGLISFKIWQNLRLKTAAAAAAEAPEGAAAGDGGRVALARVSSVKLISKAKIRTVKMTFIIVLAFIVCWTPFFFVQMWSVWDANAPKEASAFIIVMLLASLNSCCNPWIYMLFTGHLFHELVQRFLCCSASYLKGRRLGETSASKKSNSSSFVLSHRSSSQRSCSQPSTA

Sequence of oxytocin (P01178 whole entry, looked up): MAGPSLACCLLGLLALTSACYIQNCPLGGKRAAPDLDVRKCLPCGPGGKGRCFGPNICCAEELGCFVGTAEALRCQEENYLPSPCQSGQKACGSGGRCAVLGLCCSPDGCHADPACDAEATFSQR

Ki: 0.79 nM
Substance: oxytocin (from UniProt P01178)
